Measurements taken from the supplement of paper PMC10567573.

B1: SNX3 (parent)
chain: FLRQLPFRGDDGIFDDNFIEERKQ
B2: WDR41 (parent)
chain: WTMQAYERNFWDPSPQLDTQQEIK

Variants of: B1
Test: protein stability index of a GFP-peptide fusion (GPS, HEK-293T) (PSI 1-6); higher = more stable
Conditions: c terminus: a fixed tail appended
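Also: lentivirally expressed fusions sorted by FACS into six bins by GFP to DsRed ratio, PSI derived from sequencing read proportions per bin multiplied by bin number.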

Protein stability index, by site and new letter:
F7: M 3.32, Q 3.59, H 3.52, C 3.16, N 3.87, W 3.05, T 4.35, L 3.23, K 4, D 4.03, S 3.76, R 3.58, G 3.5, E 4.77, P 2.62, V 3.83, Y 3.07, I 2.83
L5: N 3.78, R 3.99, P 3.78, A 3.1, W 1.96, Y 2.78, F 3.36, S 4.01, I 2.18, Q 3.72, D 3.71, T 3.77, K 4.01, G 3.74, M 3.39, H 3.22, V 4.15, E 4.62
G12: D 3.67, F 3.03, S 3.21, E 3.64, H 3.77, T 3.66, I 2.39, C 3.03, Q 3.84, R 3.1, N 3.23, W 2.67, A 3.79, P 2.74, V 3.07, K 4.03, M 3.79, L 3.01
R3: K 3.43, M 2.76, D 3.45, V 2.98, E 3.2, P 4.09, F 1.97, A 3.28, Q 3.62, Y 2.28, N 3.48, T 3.17, L 1.94, G 3.1, W 1.83, I 2.42, H 3.12, C 2.71, S 3.1
Q4: F 2.44, A 3.78, V 3.07, G 4.33, N 2.13, P 1.95, Y 1.48, E 3.85, T 3.08, D 4.26, R 2.27, H 2.94, K 2.67, S 2.95, L 1.91, W 2.7, M 3.22, C 2.83, I 2.55
L2: S 4.56, K 2.81, P 4.66, V 2.19, N 4.08, H 2.34, G 4.59, I 2.59, F 3.16, A 3.84, D 4.72, C 3.48, Y 4.46, M 4.01, W 3.02, T 4.04, E 4.87, Q 3.07
P6: W 2.15, K 2.88, V 2.29, D 3.31, N 3.02, R 3.1, M 1.74, E 2.91, Y 2.9, Q 3.32, F 2.14, C 2.49, H 3.1, I 2.26, S 3.26, G 3.45, T 2.92, A 2.22
R8: M 3.1, L 2.95, T 3.97, Q 4.22, N 3.68, H 3.96, D 2.9, A 3.15, S 3.61, G 3.79, P 3.75, Y 3.96, K 3.69, C 2.33, F 2.44, E 3.94, W 3.08, I 2.67, V 3.56
D10: A 3.12, W 2.35, R 3.27, Q 3.56, N 2.64, C 3.52, V 3.72, G 2.76, E 3.33, S 3.35, T 3.2, Y 1.9, I 2.03, P 3.42, L 2.42, F 2.62, K 3.41, M 3.41, H 3.65
G9: R 3.27, F 3.36, K 3.39, P 3.06, E 3.17, L 2.99, T 2.97, A 3.68, I 2.9, C 2.79, N 2.72, H 3.08, S 3.41, Q 2.98, D 3.04, W 3.02, V 3.08, Y 2.53
F1: C 4.1, I 3.58, S 4.72, W 3.03, D 4.7, V 3.87, H 5.32, Q 4.96, A 4.63, L 3.83, Y 4.18, P 4.99, K 4.68, N 4.44, T 4.59, M 3.56, R 4.59
D11: T 3.37, G 4.22, R 2.46, P 4.1, Y 2.32, M 3.05, Q 3.16, E 2.9, L 2.71, C 2.91, N 3.01, H 3.15, F 2.74, I 2.53, W 1.94, S 4.12, A 4.01, V 4.03, K 3

Variants of: B2
Test: as above
Conditions: c terminus: a fixed tail appended

Protein stability index of substitutions, site by site:
S14: H 1.94, G 3.05, M 2.47, A 3.06
E22: G 2.34, W 1.88, F 2.11, Q 2.1, R 2.15
P15: F 1.96, I 2.15, S 2.02, V 2.19
Q21: W 1.6, C 2.12, Y 2.61, R 2.84, N 2.71, V 2.51, I 1.73, E 2.56, L 1.92
E7: K 2.94, D 3.25, G 2.7, P 2.79, W 2.39
A5: Q 2.85, V 2.12, T 2.57, M 2.71, K 2.96
D18: C 1.95, K 2.16, N 2.17, P 2.24, W 1.83, L 2.63, T 2.44, F 2.14
D12: H 2.73, G 1.96, E 2.31, P 3.31
W1: D 5.58, K 4.15, R 4.08, P 4.6, M 3.77, H 3.13
M3: L 2.69, E 3.89, N 2.34
Q20: S 2.07, N 2.88, P 2.06, H 2.86
N9: K 1.94, Y 2.08, S 2.46, A 2.08, F 2.12, M 1.45
Y6: C 2.87, S 2.78, D 3.34, Q 2.83, P 2.95
Q16: E 2.64, D 2.65, W 1.4, L 2.42, N 2.2, R 2.14
L17: P 2.9, G 3.22, R 3.23, Y 2.49
Q4: W 1.72, G 3.34, C 2.27
P13: W 1.76, A 2.11
R8: P 3.77, K 2.86, Q 3.26, D 3.9
T19: S 2.91, D 2.19
I23: F 2.43, K 3.93, E 3.26, L 2.91, R 2.91, T 2.83, G 3.05
K24: M 1.91, E 3.06, C 2.19
T2: C 2.15, M 2.14, I 1.62, H 1.89, A 2.01, R 2.91
F10: D 4.7, G 3.25, W 2.77, C 3.52, P 3.65, S 3.95, V 3.68
W11: Y 3.5, M 3.58
